The nature of the data set: protein stability index of a GFP-peptide fusion (GPS, HEK-293T) (PSI 1-6); higher = more stable. Particulars: c terminus: native.
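Note: lentivirally expressed fusion library, cells FACS-sorted into six equal-sized GFP/DsRed ratio bins, PSI computed from sequencing read fractions per bin weighted by bin number.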

B1: POLD2 addG (peptide)
chain: CQPISFSGFGAEDDDLGGLGLGPG
Regarding B1, the protein stability index (parent: NP_006221.1) came to 2.37.

B2: SNF8 addG (peptide)
chain: LPALFTDLYSQEITAEEAREALPG
Take B2: the protein stability index (parent: NP_009172.2) came to 2.8.

B3: PSMB5 addG (peptide)
chain: DGWIRVSSDNVADLHEKYSGSTPG
B3: the protein stability index (parent: NP_002788.1) was 3.

B4: TRPA1 addG (peptide)
chain: EQRNSRWNTVLRAVKAKTHHLEPG
On to B4, for which the protein stability index (parent: NP_015628.1) was 3.92.

For the origin of these results see the supplement of paper PMC10567573.
